In test [1] the target is monkey PD-L1 protein on CHOK1 cell (monkey (cyno)). In words: FACS blocking assay: antibody titrated against Biotin-PD-1-mFc on CHOK1-cynoPD-L1 cells, SA488 detection.
Test [2] has as its target human PD-L1 (Acro, Catalog Number: H5229) (human) (UniProt Q9NZQ7). Nature of the test: BLI, Octet RED96e, antibody on AHC sensor, antigen 100 nM, 1:1 fit. For orientation: Biolayer interferometry detects binding as a change in optical thickness at a sensor tip.
For test [3], the target named is human PD-L1 protein on HEK293 cell (human) (UniProt Q9NZQ7). Nature of the test: FACS blocking assay: antibody titrated against Biotin-PD-1-mFc on HEK293-hPD-L1 cells, SA488 detection.
Chain of human PD-L1 protein on HEK293 cell (human) (Q9NZQ7 19-290): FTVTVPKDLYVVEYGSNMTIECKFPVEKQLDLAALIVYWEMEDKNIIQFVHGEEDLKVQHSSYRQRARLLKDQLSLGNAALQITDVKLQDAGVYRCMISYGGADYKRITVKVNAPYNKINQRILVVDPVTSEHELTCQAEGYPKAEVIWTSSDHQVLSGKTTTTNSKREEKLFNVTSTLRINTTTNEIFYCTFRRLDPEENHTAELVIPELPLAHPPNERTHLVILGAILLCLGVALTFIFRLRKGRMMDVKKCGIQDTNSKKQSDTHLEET

Chain of human PD-L1 (Acro, Catalog Number: H5229) (human) (Q9NZQ7 19-238 limits assumed): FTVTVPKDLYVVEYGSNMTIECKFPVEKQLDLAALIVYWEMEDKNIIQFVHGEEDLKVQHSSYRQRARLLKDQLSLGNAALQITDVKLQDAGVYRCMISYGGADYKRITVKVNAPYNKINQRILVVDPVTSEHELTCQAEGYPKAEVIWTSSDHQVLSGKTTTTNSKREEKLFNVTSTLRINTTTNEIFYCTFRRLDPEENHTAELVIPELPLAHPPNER

For the substance Atezolimumab (antibody), the IC50 (read off the curve) in test [1] was 0.9 µg/mL. In addition, in test [2], the Kd is 0.484 nM, the dissociation rate constant (koff) was 0.000311 s⁻¹ and the kon came out at 644000 M⁻¹ s⁻¹. This substance also came in with an IC50 (read off the curve) in test [3] of 0.08 µg/mL.

Broadly, the Kd is the free concentration of one partner at which half of the binding sites on the other are occupied at equilibrium, for simple one-to-one binding. As usually defined, the koff is a measure of how fast the partners let go of each other. One may read the kon as the second-order rate constant of association.

These data come from patent publication US20250277038A1.
